Data: paper doi:10.1101/2021.10.29.466484, “Clamping of DNA shuts the condensin neck gate” (bioRxiv, 2021)

How the values were obtained:
Smc4 = biological target: T1, Smc4 (S. cerevisiae, UniProt Q12267 1-1418); test: cryo-EM structure; condensin pentamer (Smc2, Smc4, Brn1, Ycs4, Ycg1) with 80 bp dsDNA, ADP and BeF3; separate maps of the head module and of Ycg1-DNA from one dataset; settings: both partners purified
T1 construct: Smc4, SMC subunit of budding yeast (S. cerevisiae) condensin, wild type; Only the head domain and proximal coiled coil are resolved in the maps; also called SMC4-3xStrepII
T1 sequence: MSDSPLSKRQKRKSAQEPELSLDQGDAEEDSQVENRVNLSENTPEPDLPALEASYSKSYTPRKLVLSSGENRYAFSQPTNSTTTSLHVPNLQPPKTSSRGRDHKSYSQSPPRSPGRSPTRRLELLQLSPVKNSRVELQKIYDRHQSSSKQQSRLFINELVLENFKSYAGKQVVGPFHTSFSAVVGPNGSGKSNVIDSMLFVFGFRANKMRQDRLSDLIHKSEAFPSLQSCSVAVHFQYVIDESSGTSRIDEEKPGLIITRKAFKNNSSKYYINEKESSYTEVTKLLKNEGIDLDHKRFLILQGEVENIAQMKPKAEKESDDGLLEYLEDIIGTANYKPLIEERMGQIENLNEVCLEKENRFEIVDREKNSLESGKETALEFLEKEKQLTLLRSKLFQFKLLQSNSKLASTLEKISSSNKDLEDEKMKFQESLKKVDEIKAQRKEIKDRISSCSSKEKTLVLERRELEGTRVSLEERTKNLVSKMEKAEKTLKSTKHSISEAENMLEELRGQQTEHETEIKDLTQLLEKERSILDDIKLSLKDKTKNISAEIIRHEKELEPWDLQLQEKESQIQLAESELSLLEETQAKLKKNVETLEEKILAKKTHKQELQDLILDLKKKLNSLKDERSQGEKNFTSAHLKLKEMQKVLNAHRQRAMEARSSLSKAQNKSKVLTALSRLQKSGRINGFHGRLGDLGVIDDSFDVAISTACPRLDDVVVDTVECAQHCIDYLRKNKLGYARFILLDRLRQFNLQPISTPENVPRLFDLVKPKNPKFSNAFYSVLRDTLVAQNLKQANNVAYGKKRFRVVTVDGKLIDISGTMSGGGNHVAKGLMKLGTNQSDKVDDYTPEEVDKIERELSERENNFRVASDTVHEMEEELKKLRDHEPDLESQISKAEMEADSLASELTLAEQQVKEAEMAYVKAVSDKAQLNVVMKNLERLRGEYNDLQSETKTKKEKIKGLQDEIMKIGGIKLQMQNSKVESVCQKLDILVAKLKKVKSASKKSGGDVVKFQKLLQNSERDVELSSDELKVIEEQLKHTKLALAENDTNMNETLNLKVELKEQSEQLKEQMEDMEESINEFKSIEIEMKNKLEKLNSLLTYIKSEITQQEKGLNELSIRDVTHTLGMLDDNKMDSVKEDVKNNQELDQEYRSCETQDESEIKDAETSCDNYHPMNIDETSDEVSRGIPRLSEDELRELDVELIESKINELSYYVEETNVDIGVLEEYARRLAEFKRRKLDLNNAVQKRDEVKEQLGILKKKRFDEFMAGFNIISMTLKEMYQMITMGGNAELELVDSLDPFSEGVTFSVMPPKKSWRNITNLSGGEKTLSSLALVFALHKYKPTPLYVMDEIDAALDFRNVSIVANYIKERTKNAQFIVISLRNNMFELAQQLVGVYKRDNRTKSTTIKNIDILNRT

Ycg1 = biological target: T2, Ycg1 (S. cerevisiae, UniProt Q06680 1-1035); test: as above; settings: both partners purified
T2 construct: Ycg1, HAWK subunit of budding yeast (S. cerevisiae) condensin, wild type
T2 sequence: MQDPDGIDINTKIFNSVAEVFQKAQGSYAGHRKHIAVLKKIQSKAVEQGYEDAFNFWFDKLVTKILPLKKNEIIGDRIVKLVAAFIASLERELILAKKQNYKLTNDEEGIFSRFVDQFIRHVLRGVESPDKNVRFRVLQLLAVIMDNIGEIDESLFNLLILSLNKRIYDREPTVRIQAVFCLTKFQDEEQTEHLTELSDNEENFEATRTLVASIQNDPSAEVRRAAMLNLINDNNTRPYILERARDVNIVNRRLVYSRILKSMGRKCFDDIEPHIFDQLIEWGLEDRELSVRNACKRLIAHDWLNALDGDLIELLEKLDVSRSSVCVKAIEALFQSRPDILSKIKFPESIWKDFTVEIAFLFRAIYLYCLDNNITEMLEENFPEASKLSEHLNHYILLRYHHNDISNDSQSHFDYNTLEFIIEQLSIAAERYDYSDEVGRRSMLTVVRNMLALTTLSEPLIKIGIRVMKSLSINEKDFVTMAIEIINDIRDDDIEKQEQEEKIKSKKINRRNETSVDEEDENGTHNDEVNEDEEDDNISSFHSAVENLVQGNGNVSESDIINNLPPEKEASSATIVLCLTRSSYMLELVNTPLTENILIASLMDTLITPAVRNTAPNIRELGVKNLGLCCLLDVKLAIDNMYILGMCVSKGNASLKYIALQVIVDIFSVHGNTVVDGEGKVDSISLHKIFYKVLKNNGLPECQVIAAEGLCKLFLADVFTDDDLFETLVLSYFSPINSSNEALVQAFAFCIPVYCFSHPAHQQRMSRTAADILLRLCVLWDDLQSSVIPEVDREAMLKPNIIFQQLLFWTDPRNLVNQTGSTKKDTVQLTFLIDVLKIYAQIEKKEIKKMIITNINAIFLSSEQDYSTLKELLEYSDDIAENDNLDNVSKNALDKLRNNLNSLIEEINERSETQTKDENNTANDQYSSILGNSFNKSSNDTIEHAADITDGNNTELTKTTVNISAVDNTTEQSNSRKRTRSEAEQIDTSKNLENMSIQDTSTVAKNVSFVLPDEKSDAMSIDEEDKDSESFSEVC

binding result (Smc4): binds | binding result (Ycg1): binds
B1: Brn1 (natural protein, S. cerevisiae)
chain: MTTQLRYENNDDDERVEYNLFTNRSTMMANFEEWIKMATDNKINSRNSWNFALIDYFYDLDVLKDGENNINFQKASATLDGCIKIYSSRVDSVTTETGKLLSGLAQRKTNGASNGDDSNGGNGEGLGGDSDEANIEIDPLTGMPISNDPDVNNTRRRVYNRVLETTLVEFETIKMKELDQELIIDPLFKKALVDFDEGGAKSLLLNTLNIDNTARVIFDASIKDTQNVGQGKLQRKEEELIERDSLVDDENEPSQSLISTRNDSTVNDSVISAPSMEDEILSLGMDFIKFDQIAVCEISGSIEQLRNVVEDINQAKDFIENVNNRFDNFLTEEELQAAVPDNAEDDSDGFDMGMQQELCYPDENHDNTSHDEQDDDNVNSTTGSIFEKDLMAYFDENLNRNWRGREHWKVRNFKKANLVNKESDLLEETRTTIGDTTDKNTTDDKSMDTKKKHKQKKVLEIDFFKTDDSFEDKVFASKGRTKIDMPIKNRKNDTHYLLPDDFHFSTDRITRLFIKPGQKMSLFSHRKHTRGDVSSGLFEKSTVSANHSNNDIPTIADEHFWADNYERKEQEEKEKEQSKEVGDVVGGALDNPFEDDMDGVDFNQAFEGTDDNEEASVKLDLQDDEDHKFPIRENKVTYSRVSKKVDVRRLKKNVWRSINNLIQEHDSRKNREQSSNDSETHTEDESTKELKFSDIIQGISKMYSDDTLKDISTSFCFICLLHLANEHGLQITHTENYNDLIVNYEDLATTQAAS
notes: Brn1, kleisin subunit of budding yeast (S. cerevisiae) condensin, wild type; also called kleisin Brn1; BRN1-HA3-His12
